Data: PMC3823645

Target: Ancylostoma ceylanicum phytochelatin synthase (Ancylostoma ceylanicum)
Assay: SEC

Substance: Ancylostoma ceylanicum phytochelatin synthase (enzyme)
- stoichiometry N: 2
